Data: patent publication US20230250190A1 (published 2023)
Positions count from the first letter of the chain named.

T1: T9 (Tn-MUC1) (PAPGSTAPPAHGVT(α-GalNAc)S(α-GalNAc)APDTRPAPG-OH)
T1 peptide: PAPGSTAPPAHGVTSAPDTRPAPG

T2: T11 (Tn-MUC1) (PAPGSTAPPAHGVT(α-GalNAc)SAPDT(α-GalNAc)RPAPG-OH)
T2 peptide: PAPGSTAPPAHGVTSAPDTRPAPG

T3: T4 (Tn-MUC1) (PAPGSTAPPAHGVT(α-GalNAc)SAPDTRPAPG-OH)
T3 peptide: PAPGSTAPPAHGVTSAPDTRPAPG

T4: T8 (Tn-MUC1) (PAPGST(α-GalNAc)APPAHGVTSAPDT(α-GalNAc)RPAPG-OH)
T4 peptide: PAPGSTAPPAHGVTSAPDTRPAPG

B1: 150 (antibody, V domains shown)
VH: QVQLVQSGAEVKTPGASVKVSCKASGYTFTNYYIQWVRQAPGQALEWMGVINPYDGSTHYAQKFQGRVTLTRDTSTTTVYMDLSSLRSEDAAVYYCARDYMLGYVVFDYWGQGTLVTVSS
B2: 194 (antibody, V domains shown)
VH: B1 VH with T13K, A16T, K23T, A44G, M48L, H59D, D82E, A91T, Y109F
B3: 198 (antibody, V domains shown)
VH: B1 VH with T13K, T30I, Y32N, A44G, T58I, D82E, A91T, L102I, D108E
B4: 33 (antibody, V domains shown)
VH: QVQLVQSGAEVKKPGASVRVSCKASGYPFINYYIQWVRQAPGQGLEWMGVINPFDGSTNYAQKFQDRVTVTRDTSTSTVFMDLSSLRSEDTAVYYCARDNMIGYVLLDYWGQGTLVTVSS
B5: 206 (antibody, V domains shown)
VH: B4 VH with D66G, S84N, N100S, L107F, Y109F
B6: 37 (antibody, V domains shown)
VH: QVQLVQSGAEVKKPGASVTVSCKTSGYTFTSYYIHWLRQAPGQGLEWMGVINPFGGATNYAQKFQGRVTMTRDTSTITVYMELSSLRSEDTAVYYCARDAMGGDSHFDHWGRGTLVTVSS
B7: 146 (antibody, V domains shown)
VH: QVQLVQSGAEVKKPGASVKVSCKASGYAFTSYYIHWVRQAPGQGLEWMGVINPYGGSTNYAQKFQGRVTMTRDTSTRIVYMDLSSLRSEDTAVYYCARDAMEGDSYFDYWGQGTLVTVSS
B8: 162 (antibody, V domains shown)
VH: QVQLVQSGAEVKKPGASVMLSCKASGYIFTSYYIQWVRQAPGQGLEWMGVVNPYDGSTNYAQKFQGRVTITRDTSTSTVFMELSSLRSEDTAVYYCARDNMLGHVIFDFWGQGTLVTVSS
B9: 74 (antibody, V domains shown)
VH: QVQLVQSGAEVKKPGASVQVSCKASGYTFINYYLQWVRQAPGQGLEWMGTINPFDGSTHYEQNFQGRVTMTRDTSTNTVYMELNGLRSEDTAVYYCARDHMIGYILFDYWGQGTTVTVSS
B10: 170 (antibody, V domains shown)
VH: B9 VH with E61A, N63K, G85S, H100R, I105V, T115L
B11: 102 (antibody, V domains shown)
VH: QVQLVQSGAEVKKSGASVKVSCKASGYPFISYYIHWLRQAPGQGLTWMGVINPFDGSTDYAQKFQGRVTVTRDTSTSTVYMDLSSLRADDTAIYYCARDYMRGYVVFDYWGQGTLVTVSS

What was measured:
Assay in all cases: glycopeptide array
T9 (Tn-MUC1) = target: T1, T9 (Tn-MUC1)
T11 (Tn-MUC1) = target: T2, T11 (Tn-MUC1)
T4 (Tn-MUC1) = target: T3, T4 (Tn-MUC1)
T8 (Tn-MUC1) = target: T4, T8 (Tn-MUC1)

Row | Binder | EC50 (T9 (Tn-MUC1)) [µg/mL] | EC50 (T11 (Tn-MUC1)) [µg/mL] | EC50 (T4 (Tn-MUC1)) [µg/mL] | EC50 (T8 (Tn-MUC1)) [µg/mL]
1 | B1 | 0.098 | 0.157 | 0.126 | 0.135
2 | B2 | 0.082 | 0.109 | 0.1 | 0.099
3 | B3 | 0.121 | 0.137 | 0.111 | 0.121
4 | B4 | 0.071 | 0.088 | 0.076 | 0.079
5 | B5 | 0.066 | 0.088 | 0.068 | 0.084
6 | B6 | 0.13 | 0.158 | 0.157 | 0.144
7 | B7 | 0.086 | 0.116 | 0.081 | 0.104
8 | B8 | 0.037 | 0.063 | 0.037 | 0.043
9 | B9 | 0.096 | 0.137 | 0.111 | 0.118
10 | B10 | 0.127 | 0.141 | 0.116 | 0.123
11 | B11 | 0.102 | 0.111 | 0.087 | 0.101
